T1: Synechocystis OCP lacking the N-terminal extension, construct OCP_(13-317), holoprotein (Synechocystis sp. PCC 6803, UniProt P74102 13-317)
T1 sequence: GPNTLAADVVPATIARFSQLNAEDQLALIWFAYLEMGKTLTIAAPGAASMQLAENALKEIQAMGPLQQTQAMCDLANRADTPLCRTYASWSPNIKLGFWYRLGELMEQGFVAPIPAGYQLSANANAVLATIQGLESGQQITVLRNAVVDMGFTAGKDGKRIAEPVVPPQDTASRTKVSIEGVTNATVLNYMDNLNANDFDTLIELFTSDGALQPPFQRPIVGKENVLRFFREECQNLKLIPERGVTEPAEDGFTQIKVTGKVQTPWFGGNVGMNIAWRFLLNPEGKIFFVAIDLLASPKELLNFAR


Experiments:
[1] = target: Truncated Synechocystis FRP spanning amino acids 8-109 (Synechocystis sp. PCC 6803); experiment: SEC-MALS + other: SAXS
[2] = target: T1, Synechocystis OCP lacking the …; experiment: SEC-MALS
SAXS = target: the molecule itself; experiment: SAXS

Truncated Synechocystis FRP spanning amino acids 8-109 (domain or fragment), sequence (P74103 whole entry, the tested form may be a part): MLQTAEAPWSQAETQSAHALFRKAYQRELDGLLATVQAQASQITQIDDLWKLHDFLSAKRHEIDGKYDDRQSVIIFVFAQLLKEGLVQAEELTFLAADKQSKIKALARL

| Molecule | stoichiometry N [1] | stoichiometry N [2] [FRP per OCP] | stoichiometry N (SAXS) |
| --- | --- | --- | --- |
| Truncated Synechocystis FRP spanning amino acids 8-109 (domain or fragment) | 2 |  |  |
| Synechocystis FRP (fluorescence recovery protein), wild-type construct with uncleavable N-terminal His6 tag and linker (natural protein) LQTAEAPWSQAETQSAHALFRKAYQRELDGLLATVQAQASQITQIDDLWKLHDFLSAKRHEIDGKYDDRQSVIIFVFAQLLKEGLVQAEELTFLAADKQSKIKALARL |  | 2 |  |
| Arthrospira maxima FRP (natural protein) MSEINWSEQDKNAAVDALHKAYEREVKILIDEVKQKAFNLTEIDEVWKLHDFLSARRHDIDGKYDYRDAASVFVLATLVKQGWLSLEELQVLGQDKLAKISALTRL |  | 1 | 2 |

Reference: article doi:10.1101/247882 (bioRxiv, 2018)
